These results are taken from the RNAGym collection of RNA variant scans (doi:10.7554/elife.80360).

The chains are these.
B1: Hairpin Ribozyme (parent)
chain: GUCCUCUUUCACGUGCGCGUGAAAGAGAGAAGUGAACCAGAGAAACACACGUUGUGGUAUAUUACCUGGUA

In the series the parent is B1. In words: self-cleavage, relative activity (ratio to wild type); higher = more cleavage; co-transcriptional.
Take GUCCUCUUUCACGUGCGCGAGAAAGAGAGAAGUGAACCAGAGAAUCACACGUUGUGGUAUAUUACCUGGUA [U20A A45U]: the self-cleavage came to 0.172.

Take GUCCUCUUUCACGUGCGCGAGAAAGAGAGUAGUGAACCAGAGAAACACACGUUGUGGUAUAUUACCUGGUA [U20A A30U]: the self-cleavage worked out at 0.145.

In the case of GUCCUCUUUCACGUGCGCGAGAAAGAGAGAAGUGAACCAGAGCAACACACGUUGUGGUAUAUUACCUGGUA [U20A A43C], the self-cleavage was determined as 0.0739.

With GUCCUCUUUCACGUGCGCGAGAAAGACAGAAGUGAACCAGAGAAACACACGUUGUGGUAUAUUACCUGGUA [U20A G27C], the self-cleavage was determined as 0.175.

Turning to GUCCUCUUUCACGUGCGCGAGAAAGAAAGAAGUGAACCAGAGAAACACACGUUGUGGUAUAUUACCUGGUA [U20A G27A], the self-cleavage was 0.385.

Consider GUCCUCUUUCACGUGCGCUUGAAAGAGAGAAGUGAACCAGAGAAACACACGUUGUAGUAUAUUACCUGGUA [G19U G56A], for which the self-cleavage is 0.16.

Turning to GUCCUCUUUCACGUGCGCUUGAAAGAGAGAAGUGAACCAGAGAAACACACGUUGUCGUAUAUUACCUGGUA [G19U G56C], the self-cleavage stood at 0.223.

With GUCCUCUUUCACGUGCGCGAGAAAGAGAGAAGUUAACCAGAGAAACACACGUUGUGGUAUAUUACCUGGUA [U20A G34U], the self-cleavage came out at 1.29.

In the case of GUCCUCUUUCACGUGCGCGAGAAAGAGAGAAGUGAAUCAGAGAAACACACGUUGUGGUAUAUUACCUGGUA [U20A C37U], the self-cleavage was determined as 0.511.

GUCCUCUUUCACGUGCGCGAGAAGGAGAGAAGUGAACCAGAGAAACACACGUUGUGGUAUAUUACCUGGUA [U20A A24G]: the self-cleavage came out at 0.895.

Regarding GUCCUCUUUCACGUGCGCUUGAAAGAGAGAAGUGAACCAGAGAAACACACGUUGCGGUAUAUUACCUGGUA [G19U U55C], the self-cleavage is 0.226.

For GUCCUCUUUCACGUGCGCGAGAAAGAGAGAAGUGAACCUGAGAAACACACGUUGUGGUAUAUUACCUGGUA [U20A A39U], the self-cleavage came out at 0.296.

Regarding GUCCUCUUUCACGUGCGCGAGAAAGAGAGAGGUGAACCAGAGAAACACACGUUGUGGUAUAUUACCUGGUA [U20A A31G], the self-cleavage stood at 0.466.

As for GUCCUCUUUCACGUGCGCGAGAAAGAGCGAAGUGAACCAGAGAAACACACGUUGUGGUAUAUUACCUGGUA [U20A A28C], the self-cleavage was 0.482.

GUCCUCUUUCACGUGCGCGAGAAAGAGGGAAGUGAACCAGAGAAACACACGUUGUGGUAUAUUACCUGGUA [U20A A28G]: the self-cleavage was determined as 0.833.

On to GUCCUCUUUCACGUGCGCUUGAAAGAGAGAAGUGAACCAGAGAAACACACGUUGUGGUAUACUACCUGGUA [G19U U62C], for which the self-cleavage stood at 0.256.

With GUCCUCUUUCACGUGCGCGAGAAAGAGAGAAGUGAACCAGAGAAACACACGUUGUGGUAUAUUACCUGAUA [U20A G69A], the self-cleavage turned out to be 0.337.

In the case of GUCCUCUUUCACGUGCGCUUGAAAGAGAGAAGUGAACCAGAGAAACACACGUUGUGGUACAUUACCUGGUA [G19U U60C], the self-cleavage was 1.2.

GUCCUCUUUCACGUGCGCGAGAAAGAGAGAAGUGAACCAGAGAAACACACGCUGUGGUAUAUUACCUGGUA [U20A U52C]: the self-cleavage was 0.96.

For GUCCUCUUUCACGUGCGCGAGAAAGAGAGAAGUGAACCAGAGAAACACACGAUGUGGUAUAUUACCUGGUA [U20A U52A], the self-cleavage was determined as 0.844.

For GUCCUCUUUCACGUGCGCGAGAAAGAGAGAAGUGAACCAGAGAAACACACGUUGUGGCAUAUUACCUGGUA [U20A U58C], the self-cleavage was determined as 0.847.

On to GUCCUCUUUCACGUGCGCGAGAAAGAGAGAAGUGAACCAGAGAAACACACGUUGAGGUAUAUUACCUGGUA [U20A U55A], for which the self-cleavage came out at 0.252.

Take GUCCUCUUUCACGUGCGCGAGAAAGAGAGAAGUGAACCAGAGAAACACACGUUGCGGUAUAUUACCUGGUA [U20A U55C]: the self-cleavage stood at 0.258.

On to GUCCUCUUUCACGUGCGCGAGAAAGAGAGAAGUGAACCAGAGAAACACACGUUGGGGUAUAUUACCUGGUA [U20A U55G], for which the self-cleavage was 0.256.

Consider GUCCUCUUUCACGUGCGCGAGAAAGAGAGAAGUGAACCAGAGAAACACACGUUGUGGUAUAUAACCUGGUA [U20A U63A], for which the self-cleavage was determined as 0.261.

On to GUCCUCUUUCACGUGCGCGAGAAAGAGAGAAGUGAACCAGAGAAACACACGUUGUGGUAUAUGACCUGGUA [U20A U63G], for which the self-cleavage was determined as 0.263.

For GUCCUCUUUCACGUGCGCGAGAAAGAGAGAAGUGACCCAGAGAAACACACGUUGUGGUAUAUUACCUGGUA [U20A A36C], the self-cleavage is 0.412.

For GUCCUCUUUCACGUGCGCGAGAAAGAGAGAAGUGAACCAGAGAAACACACGUUGUUGUAUAUUACCUGGUA [U20A G56U], the self-cleavage stood at 0.114.

As to GUCCUCUUUCACGUGCGCGAGAAAGAGAGAAGUGAACCAUAGAAACACACGUUGUGGUAUAUUACCUGGUA [U20A G40U], the self-cleavage amounted to 0.153.

Regarding GUCCUCUUUCACGUGCGCGAGAAAGAGAGAAGUGAACCAGAGAAACACACGUUGUGUUAUAUUACCUGGUA [U20A G57U], the self-cleavage was 0.259.

As to GUCCUCUUUCACGUGCGCGAGACAGAGAGAAGUGAACCAGAGAAACACACGUUGUGGUAUAUUACCUGGUA [U20A A23C], the self-cleavage came out at 0.734.

Take GUCCUCUUUCACGUGCGCGAGAAAGAGAGAAGUGAACCAGAAAAACACACGUUGUGGUAUAUUACCUGGUA [U20A G42A]: the self-cleavage stood at 0.226.

GUCCUCUUUCACGUGCGCGAGAAAGAGAGAAGUGAACCAGAUAAACACACGUUGUGGUAUAUUACCUGGUA [U20A G42U]: the self-cleavage was found to be 0.346.

For the variant GUCCUCUUUCACGUGCGCGAGAAAGAGAGAAGUGAACCAGAGAAACACACGUUGUGGUAUAUUAUCUGGUA [U20A C65U], the self-cleavage worked out at 0.388.

Consider GUCCUCUUUCACGUGCGCUUGAAAGAGAGAAGUGAACCAGAGAAACACACGUUGUGGUAUAUUACCUGAUA [G19U G69A], for which the self-cleavage was 0.32.

Take GUCCUCUUUCACGUGCGCUUGAAAGAGAGAAGUGAACCAGAGAAACACACGUUGUGGUAUAUUACCUGCUA [G19U G69C]: the self-cleavage is 0.269.

With GUCCUCUUUCACGUGCGCUUGAAAGAGAGAAGUGAACCAGAGAAACACACGUUGUGGAAUAUUACCUGGUA [G19U U58A], the self-cleavage was found to be 0.607.

Take GUCCUCUUUCACGUGCGCUUGAAAGAGAGAAGUGAACCAGAGAAACACACGUUGUGAUAUAUUACCUGGUA [G19U G57A]: the self-cleavage was found to be 0.169.
